Test results reported in US11492610B2, “Sample multiplexing for single-cell RNA sequencing” (California Institute of Technology, priority 2018, dated 2022).

System: mouse neural stem cells (NSCs)
Assay: 96-plex scRNA-seq perturbation experiment (96-sample growth factor screen)
Format: cell-based
Method: Neural stem cells for 96-sample growth factor screen were cultured according to the following protocol after previously described cell culture plate reached ˜80% confluence: Stock solutions (10×) were prepared in Neural Stem Cell Basal Medium for every factor and at every concentration used: EGF+bFGF at 200 ng/mL, 40 ng/mL, 8 ng/mL, 1.6 ng/mL; BMP4 (Peprotech) at 200 ng/mL, 40 ng/mL, 8 ng/mL, 0 ng/mL; Retinoic Acid (Sigma) at 10 μM, 2 μM, 0 μM; Scriptaid (Selleckchem)/Decitabine (Selleckchem) at 1 μM/5 μM, 0.2 μM/1 μM, 0 μM/0 μM; Heparin at 20 μg/mL+Penicillin-Streptomycin at 10%. 20 μL each of EGF/bFGF, BMP4, Retinoic acid or Scriptaid/Decitabine, and Heparin/Penicillin-Streptomycin were added to each well of a poly-L-ornithine and laminin coated 96-well plate for a total of 80 μL.
NSCs previously plated on 100 mm culture plates until ˜80% confluent were dissociated by incubation in 4 mL of ESGRO Complete Accutase (Millipore) for 2 minutes at 37° C. After incubation, the Accutase and NSCs were transferred to a 15 mL conical tube and centrifuged at room temperature for 2.5 minutes at 200×g. Supernatant was removed and the cell pellet was resuspended in 2 mL Neural Stem Cell Basal Medium. Centrifugation and medium replacement were repeated one more time and cell concentration was counted on the Countess II Automated Cell Counter. The cell suspension was then diluted with additional Neural Stem Cell Basal Medium to a concentration of 18.3 cells/μL. From this stock 120 μL was added to each well of the 96-well plate for a total of ˜2,200 cells/well. Supplemented media for every well in the 96-well plate was replaced every other day during the 5-day incubation.
Before NSC dissociation and fixation, 80 μL of ice-cold methanol was added to each well of twelve 8-well PCR strips on an ice block. After 5 days in culture, all media in the 96-well plate were removed and the cells washed three times with 150 μL of Neural Stem Cell Basal Medium. Any remaining media were removed and replaced with 20 μL of Accutase and incubated at 37° C. for 2 minutes with gentle pipetting to help break cell clumps. […]
Cells for the 96-sample perturbation experiment were prepared as described above. […] Sequencing libraries were prepared as described, with sample tag libraries sequenced on two lanes of Illumina MiSeq using MiSeq v3 150 cycle kits (26×98 bp reads), and cDNA libraries pooled and sequenced on Illumina HiSeq 4000 using two HiSeq 3000/4000 SBS 300 cycle kits (2×150 bp reads).
For the 96-sample perturbation experiment, the ScanPy Python package (version 1.0.4) was used to process the filtered genes×cells matrix produced by cellranger. […] The per-cell read counts were regressed out and the data scaled to unit variance. […]

B1: BMP4: bone morphogenic protein 4 (BMP4), Peprotech (protein, UniProt P12644 293-408, looked up)
Bone morphogenetic protein 4: SPKHHSQRARKKNKNCRRHSLYVDFSDVGWNDWIVAPPGYQAFYCHGDCPFPLADHLNSTNHAIVQTLVNSVNSSIPKACCVPTELSAISMLYLDEYDKVVLKNYQEMVVEGCGCR
cell proliferation / phenotype across the perturbation array (Example 2 analysis, FIG. 3E, 5A): high proliferation under low BMP4 conditions
effect on cell populations, PCA of relative cluster abundance × sample matrix (Example 2 analysis, FIG. 5B): graded effect
cell proliferation / phenotype across the perturbation array (Example 5 re-analysis (UMAP), FIG. 24, 27): high proliferation under low BMP4 conditions
effect on cell populations, PCA of relative cluster abundance × sample matrix (Example 5 re-analysis (UMAP), FIG. 24B): graded effect
